Experimental data published in the supplement of paper PMC11865577.

What was measured:
Assay in all cases: pull-down binding Z-score (relative to library population); higher = stronger binding
Settings in all cases: RNA library: Library-2
[1] = test system: TO-N3 (biotin conjugate)
Outline: (§1)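 Binding is given as a Z-score against the library mean and standard deviation, calculated after removing the beads-only signal and averaging barcoded replicate probes without their highest and lowest values. Cy5- or Cy3-end-labelled RNA library (1 μg) was heat-folded in phosphate/NaCl/KCl buffer and incubated 60 min at 25 °C with streptavidin beads bearing 100 pmol of biotin-conjugated small molecule. After three washes, RNA eluted in hot SDS was hybridised to a DNA barcode microarray for 20 h at 55.5 °C.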

[2] = test system: TO-3-N3 (biotin conjugate)
Outline: as §1

[3] = test system: TO-N3-2 (biotin conjugate)
Outline: as §1

[4] = test system: TO-3-N3-2 (biotin conjugate)
Outline: as §1

Sequence | pull-down binding Z-score [1] | pull-down binding Z-score [2] | pull-down binding Z-score [3] | pull-down binding Z-score [4]
GUGUACCUUCCUUACCCAGAUCCAUCAAGAAUCCUAGGGGCCGGCUGUUUUGUAGAUGAUAUCGUAAAAACAGAUGGUACAC [SHAPE_invivo_SARS-CoV-2_Multi_39_ComplexLevel_1] | 0.78 | 0.725 | 0.318 | -0.087
GUGUAUGCUGCUGACCCUGCUAUGCACGCUGCUUCUGGUAAUCUAUUACUAGAUAAACGCACUACGUGCUUUUCAGUAGCUGCAC | 0.772 | 0.39 | 0.698 | 0.434
GUGUUAUAACAC | -0.404 | -0.176 | -1.12 | -0.531
GUGUUUAUGAUUACUUAGUUUCUACACAGGAGUUUAGAUAUAUGAAUUCACAGGGACUACUCCCACCCAAGAAUAGCAUAGAUGC | -0.0167 | -0.215 | -0.079 | 0.472
GUUAAAAAUCUGAAUUCUUCUAGAGUUCCUGAUCUUCUGGUCUAAAC | -0.527 | -0.557 | 0.13 | 0.157
GUUAAAAUAUGAC [SHAPE_invivo_SARS-CoV-2_Motif_271] | -0.93 | -0.672 | -0.892 | -0.534
GUUAAAAUGUUUGAUGCUUACGUUAAUACGUUUUCAUCAACUUUUAAC | -1.54 | -1.02 | -1.35 | -0.247
GUUAACUGGUUAUAAGAAACCUGCUUCAAGAGAGCUUAAAGUUAC | -0.0514 | 0.0276 | -0.112 | 0.092
GUUAAUGCCUAUAUUAACCUUGACCAGGGCUUUAAC | -0.0902 | 0.238 | -0.216 | -0.198
GUUACGACUAUUGUAUACCUUACAAUAGUGUAAC | 0.531 | 0.593 | 0.142 | 0.229
GUUAGUACAACUACUAAC [SHAPE_invivo_SARS-CoV-2_Motif_138] | -1.06 | -0.759 | -0.963 | -0.398
GUUAUAAAUGGAGACAGGUGGUUUCUCAAUCGAUUUACCACAACUCUUAAUGAC | -0.772 | -0.728 | -0.831 | 0.00889
GUUAUGUUGAUACACCUAAU [DMSMaPseq_invitro_SARS-CoV-2_Motif_328] | -0.585 | -0.598 | -0.329 | -0.132
GUUCAGAGUUUAUUCUAGUGCGAAUAAUUGCACUUUUGAAUAUGUCUCUCAGC | -0.295 | -0.177 | -0.426 | 0.063
GUUCGGAUGCUCGAACUGCACCUCAUGGUCAUGUUAUGGUUGAGCUGGUAGCAGAACUCGAAGGCAUUCAGUAC [DMSMaPseq_invitro_SARS-CoV-2_Motif_11] | 0.002 | -0.665 | 1.96 | -0.307
GUUCGUGUUGUUUUAGAUUUCAUCUAAACGAAC | -1.12 | -0.845 | -0.397 | -0.562
GUUCUAAGUAUUGCUCCAAUAAUGUUCUCAAACAAAAUGGCGAGACUGGGAAAAGGGUAUAUGUUUGAGAGCAAGAGUAUGAAACUUAGAAC [IAV_invivo_PB1_2_Motif_18+IAV_invivo_PB1_2_Motif_18] | 1.12 | 0.629 | 1.25 | 0.578
GUUCUCAGUACAGAGAAAUCUCCCUUUUGACAGAACAACCAUUAUGGCAGCAUUCAAUGGGAAUACAGAGGGGAGAACAUCUGACAUGAGGAC [IAV_invivo_NP_5_Motif_22+IAV_invivo_NP_5_Motif_22] | 1.12 | 0.104 | 1.23 | -0.129
GUUCUCUAAACGAAC | -0.364 | -0.273 | -1.16 | -0.742
GUUCUCUAUGAGAAC | 0.0284 | 0.38 | -1.47 | -0.504
GUUCUUCUUCGUAAGAAC | -0.728 | -0.358 | -1.19 | -0.206
GUUCUUGAGUGUAAUGUGAAAACUACCGAAGUUGUAGGAGACAUUAUACUUAAACCAGC | 0.111 | -0.133 | 0.162 | 0.0674
GUUCUUGUAUGUGAGAAC [IAV_invivo_PA_3_Motif_23+IAV_invivo_PA_3_Motif_23] | -0.949 | -0.598 | -1.09 | -0.614
GUUCUUUGAGAAC [IAV_invivo_PA_3_Motif_25+IAV_invivo_PA_3_Motif_25] | 0.0597 | 0.296 | -0.894 | -0.317
GUUGAAGAAGUUACAAC | 0.365 | 0.355 | -0.168 | 0.148

Sequence | pull-down binding Z-score [1] | pull-down binding Z-score [2] | pull-down binding Z-score [3] | pull-down binding Z-score [4]
GUUGAAGUUGUUGAUAAGUACUUUGAUUGUUACGAUGGUGGCUGUAUUAAUGCUAACCAAGUCAUCGUCAACAACCUAGACAAAUCAGCUGGUUUUCCAUUUAAU | 0.0753 | -0.27 | 0.567 | -0.0144
GUUGACAGGACACGAGUAACUCGUCUAUCUUCUGCAGGCUGCUUACGGUUUCGUCCGUGUUGCAGCCGAUCAUCAGC | 0.461 | -0.282 | 1.31 | -0.335
GUUGAUGAGCCUGAAGAACAUGUCCAAAUUCACACAAUCGACGGUUCAUCCGGAGUUGUUAAUCCAGUAAUGGAACCAAUUUAUGAUGAACCGACGACGAC | 0.862 | 0.104 | 0.77 | -0.311
GUUGAUUUUUGUGGAAAGGGCUAUCAUCUUAUGUCCUUCCCUCAGUCAGC [SHAPE_invitro_SARS-CoV-2_Motif_447] | -1.18 | -1.02 | -0.89 | -0.325
GUUGCGUCACCAAAUGAAUGCAAC | -1.3 | -0.989 | -1.2 | -0.49
GUUGCUGUACCUACAGGUUAUGUUGAUACACCUAAUAAUACAGAUUUUUCCAGAGUUAGUGCUAAACCACCGCCUGGAGAUCAAU [SHAPE_invitro_SARS-CoV-2_Multi_51_ComplexLevel_1] | 0.691 | 0.475 | 0.329 | -0.139
GUUGGAUAAUGAUGCACUCAACAACAUUAUCAAC | -1.35 | -0.974 | -0.9 | -0.75
GUUGUAGACGGUUGUAAUUCAUCAACUUGUAUGAUGUGUUACAAACGUAAUAGAGC [SHAPE_invivo_SARS-CoV-2_Motif_153] | -0.562 | -0.547 | -0.564 | -0.153
GUUGUAGACGGUUGUAAUUCAUCAACUUGUAUGAUGUGUUACAAACGUAAUAGAGCAAC | -0.954 | -0.88 | -0.288 | -0.529
GUUGUCGCUUCCAAGAAAAGGACGAAGAUGACAAU [SHAPE_invitro_SARS-CoV-2_Motif_248] | 0.141 | 0.276 | 0.292 | 0.224
GUUGUCUUGAAAACUGGUGAUUUACAACCAUUAGAACAACCUACUAGUGAAGCUGUUGAAGCUCCAUUGGUUGGUACACCAGUUUGUAUUAAC | -0.376 | -0.52 | -0.384 | -0.367
GUUGUCUUUGAUGAAAUUUCAAUGGCCAC [DMSMaPseq_invitro_SARS-CoV-2_Motif_310] | -0.615 | -0.693 | 0.376 | -0.29
GUUGUUACUCACAAUUUUGACUUCACUUUUAGUUUUAGUCCAGAGUACUCAAU | -0.965 | -0.826 | -0.924 | -0.324
GUUUAAGGAAGGUGUAGAGUUUCUUAGAGAC | 0.119 | -0.375 | 0.726 | 0.179
GUUUACAACAGUAGAC | -0.136 | 0.0879 | -1.28 | -0.155
GUUUAUGAAAAACUCAAACCCGUCCUUGAUUGGCUUGAAGAGAAGUUUAAGGAAGGUGUAGAGUUUCUUAGAGAC | 0.416 | 0.121 | -0.0848 | -0.241
GUUUCGGAAGAGAC | -0.448 | -0.255 | -0.706 | -0.443
GUUUCUGCCUUUCCAACAAUUUGGCAGAGAC | -0.868 | -0.615 | -0.994 | -0.306
GUUUGUCUUAGUGGUUUAGAUUCUUUAGACACCUAUCCUUCUUUAGAAACUAUACAAAU | 0.0216 | -0.000875 | -0.533 | 0.0248
GUUUGUGUAUCUACUAGUGGUAGAUGGGUACUUAAC | -0.726 | -0.677 | -1.05 | -0.279
GUUUUAAUUAUGCUUAUUAUCUUUUGGUUCUCACUUGAACUGCAAGAUCAUAAUGAAAC | -0.503 | -0.212 | -1.02 | -0.144
GUUUUCUACAAAGAAAAC | -1.09 | -0.676 | -1.75 | -0.524
GUUUUUCUGUUUGGAACUUUAAUUUUAGCCAUGGCAGAUUCCAACGGUACUAUUACCGUUGAAGAGCUUAAAAAGCUCCUUGAAC | -0.856 | -0.86 | -0.41 | -0.23
GUUUUUGUACACAAUUAAACCGUGCUUUAACUGGAAUAGCUGUUGAACAAGACAAAAAC [DMSMaPseq_invitro_SARS-CoV-2_Motif_424] | 0.21 | 0.247 | -0.336 | -0.127
UAAAAUGAAUUAUCAAGUUA [DMSMaPseq_invitro_SARS-CoV-2_Motif_325] | -1.04 | -0.703 | -1.2 | -0.451
